Here are results for 2 molecules from PMC7911190, “One Step Histological Detection and Staining of the PTEN Tumor Suppressor Protein by a Single Strand DNA”.

The target of data set [1] is T1, PTEN (endogenous, human tissue sections) (human, UniProt P60484 1-403). Nature of the data set: histochemistry (PS2.M peroxidase, DAB); hemin, K+; endometrium and colon; same scoring as MAb 6H2 in 60 samples; Fixed tissue sections; 5 uM aptamer in TKT (25 mM Tris-HCl pH 8, 20 mM KCl, 200 mM NaCl, 0.05% Triton X-100, 0.1% DMSO), 100 uM hemin for DNAzyme constructs, BSA; 3 h at room temperature or overnight at 4 C (25 C overnight also stated). The note with it: protein: native; 5' PS2.M G-quadruplex; stem linker removed.

Data set [2] addresses T1, PTEN (endogenous, human tissue sections). Nature of the data set: histochemistry (avidin-biotin peroxidase); normal endometrium; TKT buffer; Fixed tissue sections; 5 uM aptamer in TKT (25 mM Tris-HCl pH 8, 20 mM KCl, 200 mM NaCl, 0.05% Triton X-100, 0.1% DMSO), 100 uM hemin for DNAzyme constructs, BSA; 3 h at room temperature or overnight at 4 C (25 C overnight also stated). The following applies: protein: native; label: 5' biotin; stem-loop; 13 nt reverse-complementary primer regions form the stem.

T1 sequence (P60484 whole entry): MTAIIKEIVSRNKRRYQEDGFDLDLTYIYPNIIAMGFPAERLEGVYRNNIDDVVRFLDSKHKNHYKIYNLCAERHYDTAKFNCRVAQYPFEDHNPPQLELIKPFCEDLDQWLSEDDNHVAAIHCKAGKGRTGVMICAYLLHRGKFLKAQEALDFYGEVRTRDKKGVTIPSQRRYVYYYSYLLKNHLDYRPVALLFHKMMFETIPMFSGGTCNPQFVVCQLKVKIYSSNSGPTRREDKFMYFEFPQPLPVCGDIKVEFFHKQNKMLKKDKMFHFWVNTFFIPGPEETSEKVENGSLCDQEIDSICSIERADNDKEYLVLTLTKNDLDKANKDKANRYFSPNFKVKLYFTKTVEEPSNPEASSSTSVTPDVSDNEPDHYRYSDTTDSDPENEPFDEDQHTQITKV

B1: Dual aptazyme PTENz7-70 (structured_DNA)
DNA: GTGGGTAGGGCGGGTTGGCGGTCATACCGCGCCTATCGAACTCGCCACTCGCGTGCAGCTCTGTGTAGGT
In the case of B1, in data set [1], the binding result is on record as “binds”.

B2: PTENz7-87-biotin (structured_DNA)
DNA: CGGAATTCCGAGCGTGGGCGTGGTCATACCGCGCCTATCGAACTCGCCACTCGCGTGCAGCTCTGTGTAGGTACGCCCACGCTCGAG
As to B2, the binding result in data set [2] was “binds”.
